Laboratory results as given in patent US20070134249A1 (GENITOPE, published 2007).

Experiments:
Experiment in all cases: ELISA
[1] = biological target: T1, 791; design: key: 0 = <0.5 OD, 1 = 0.5-1.0 OD, 4 = 1-4 OD
T1 construct: H3-30 K4-1; also called PIN791
From the text: (§1) Before specificity screening, all of the clonal immunogen-positive hybridoma supernatants were re-screened on the immunogen, a non-family member Id protein, and KLH, if animals were immunized with Id protein that has been conjugated KLH. As described above, this screen identifies HC-specific clones but not mAbs against the light chain constant region. Clones identified positive to the immunogen and KLH were […]. Those found positive to the immunogen but not to the non-family member Id protein or KLH were tittered on the immunogen. In addition to normalizing for different binding affinities and concentrations, each hybridoma supernatant was titered on the fully human form of the Id protein used as the immunogen(s) for the V regions. The titer or dilution resulting in an ELISA absorbance of 2.5 to 3 OD after 30 min. incubation time was then used. Hybridoma specificity was determined by screening against available Id proteins expressing the same HV and KV or LV as well as different HV, KV and LV. The final ELISA results are expressed as follows: 0 (<0.5 OD), 1 (0.5-1.0 OD), or 4 (1-4 OD). Positive hybridoma supernatants are categorized according to specificity: anti-Id, anti-constant region (HC, KC or LC), or V region (HV, KV, LV family or family member).
(§2) In general, the fully human Id protein or proteins containing the immunogen V regions were coated onto 96-well ELISA plates at 2.5-5 ug/mL in carbonate buffer pH 9.6 and incubated at 4° C. for up to 14 days. On the day of the ELISA, plates were brought to RT and blocked with Tris-Tween-20, pH 7.6 for 15-60 min. at RT. Following a NaCl and Triton X-100 wash, diluted hybridoma cell culture supernatants were incubated overnight at 4° C. Hybridoma supernatant dilutions ranged from 1:2 to 1:25 and were prepared in PBS with 5% BSA. Plates were washed and incubated with HRP-conjugated goat anti-mouse IgG-specific detecting antibody. A chromogenic substrate (TMB) was used to measure the amount of mouse antibody bound to each well. The reaction was stopped at or before 30 minutes with IN H2SO4 and plates were read immediately. Absorbency readings at 450 nm ranging between 0-4 OD and using Molecular Devices plate reader and SOFTMAX PRO software.

[2] = biological target: T2, 786; design: key: 0 = <0.5 OD, 1 = 0.5-1.0 OD, 4 = 1-4 OD
T2 construct: H3-7 K3-15; also called PIN786
From the text: as §1, §2

[3] = biological target: T3, 518; design: key: 0 = <0.5 OD, 1 = 0.5-1.0 OD, 4 = 1-4 OD
T3 construct: H4-59 K4-1; also called PIN518
From the text: as §1, §2

[4] = biological target: T4, 1088; design: key: 0 = <0.5 OD, 1 = 0.5-1.0 OD, 4 = 1-4 OD
T4 construct: H2-5 K4-1; also called PIN1088
From the text: as §1, §2

[5] = biological target: T5, 839; design: key: 0 = <0.5 OD, 1 = 0.5-1.0 OD, 4 = 1-4 OD
T5 construct: H3-23 K4-1; also called PIN839
From the text: as §1, §2

[6] = biological target: T6, 659; design: key: 0 = <0.5 OD, 1 = 0.5-1.0 OD, 4 = 1-4 OD
T6 construct: H3-21 K4-1; also called PIN659
From the text: as §1, §2

[7] = biological target: T7, 1175; design: key: 0 = <0.5 OD, 1 = 0.5-1.0 OD, 4 = 1-4 OD
T7 construct: H3-53 K4-1; also called PIN1175
From the text: as §1, §2

[8] = biological target: T8, 898; design: key: 0 = <0.5 OD, 1 = 0.5-1.0 OD, 4 = 1-4 OD
T8 construct: H3-15 K4-1; also called PIN898
From the text: as §1, §2

[9] = biological target: T9, 631; design: key: 0 = <0.5 OD, 1 = 0.5-1.0 OD, 4 = 1-4 OD
T9 construct: H4-34 K4-1; also called PIN631
From the text: as §1, §2

[10] = biological target: T10, 585; design: key: 0 = <0.5 OD, 1 = 0.5-1.0 OD, 4 = 1-4 OD
T10 construct: H4-59 K4-1; also called PIN585
From the text: as §1, §2

[11] = biological target: T11, 987; design: key: 0 = <0.5 OD, 1 = 0.5-1.0 OD, 4 = 1-4 OD
T11 construct: H3-23 K4-1; also called PIN987
From the text: as §1, §2

[12] = biological target: T12, 710; design: key to grade: 0 = <0.5 OD, 1 = 0.5-1.0 OD, 4 = 1-4 OD
T12 construct: H1-8 L2-8; also called PIN710
From the text: as §1, §2

[13] = biological target: T13, 1060; design: key to grade: 0 = <0.5 OD, 1 = 0.5-1.0 OD, 4 = 1-4 OD
T13 construct: H4-39 L2-23; also called PIN1060
From the text: as §1, §2

[14] = biological target: T14, 604; design: key to grade: 0 = <0.5 OD, 1 = 0.5-1.0 OD, 4 = 1-4 OD
T14 construct: H4-34 L2-8; also called PIN604
From the text: as §1, §2

[15] = biological target: T15, 857; design: key to grade: 0 = <0.5 OD, 1 = 0.5-1.0 OD, 4 = 1-4 OD
T15 construct: H5-51 L2-14; also called PIN857
From the text: as §1, §2

[16] = biological target: T16, 305; design: key to grade: 0 = <0.5 OD, 1 = 0.5-1.0 OD, 4 = 1-4 OD
T16 construct: H3-48 L1-40; also called PIN305
From the text: as §1, §2

[17] = biological target: T17, 796; design: key to grade: 0 = <0.5 OD, 1 = 0.5-1.0 OD, 4 = 1-4 OD
T17 construct: H3-23 L3-25; also called PIN796
From the text: as §1, §2

[18] = biological target: T18, 645; design: key to grade: 0 = <0.5 OD, 1 = 0.5-1.0 OD, 4 = 1-4 OD
T18 construct: H3-74 L2-14; also called PIN645
From the text: as §1, §2

[19] = biological target: T19, 231; design: key to grade: 0 = <0.5 OD, 1 = 0.5-1.0 OD, 4 = 1-4 OD
T19 construct: H3-48 L2-14; also called PIN231
From the text: as §1, §2

[20] = biological target: T20, 1089; design: key to grade: 0 = <0.5 OD, 1 = 0.5-1.0 OD, 4 = 1-4 OD
T20 construct: H3-73 L2-23; also called PIN1089
From the text: as §1, §2

Row | Binder | grade [1] | grade [2] | grade [3] | grade [4] | grade [5] | grade [6] | grade [7] | grade [8] | grade [9] | grade [10] | grade [11] | grade [12] | grade [13] | grade [14] | grade [15] | grade [16] | grade [17] | grade [18] | grade [19] | grade [20]
1 | mAb clone 12C3 (antibody, V domains shown, Mouse hybridoma mAb, fusions 20/21 (PIN628 V regions)) VH: EVKLVESGGGLVQPGGSLSLSCAASGFTYTDYYMNWVRQPPGKALEWLALIRNKANGYTTEYSASLKGRFTISRDNSQSILYLQMNALRAEDSATYYCVRENINYYFDYWGQGTTLTVSS VL: DIVLTQSPASLAVSLGQRATISCRASESVEYFGASLMQWYQQKSGQPPKLLIRAATNVESGVPARFSGSGSGTDFSLNIHPVEEDDIAMYFCQQSRKVPWTFGGGTKLEIKR | 4 | 4 | 4 | 4 | 4 | 4 | 4 | 4 | 4 | 4 | 4 |  |  |  |  |  |  |  |  | 
2 | mAb clone 4H11 (antibody, V domains shown, Mouse hybridoma mAb) VH: EVKLVESGGGLVKPGGSLKLSCAASGFAFSNYDMSWVRQTPEKRLEWVATIRSDDSYTYYPDSVKGRFTISRDNARNTLYLQMSSLRSEDTAFYYCARREGNYAMDYWGQGTSVTVSS VL: DIQMTQSPASLSVSVGETVTITCRASENIYSYLAWYQQKKGKSPQLLVYAATNLGDGVPTRFSGSGSGTQYSLKINSLQSEDFGSYYCQHFWGNPLTFGAGTKLELKR |  |  |  |  |  |  |  |  |  |  |  | 4 | 4 | 4 | 4 | 4 | 4 | 1 | 4 | 4
